Test [1] addresses T1, GPC3 peptide, amino acid position 81-110 (SEQ ID NO: 5) (human).
T1 construct: synthetic 30-residue peptide of GPC3
T1 peptide: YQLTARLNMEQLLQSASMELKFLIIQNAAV
Kind of test: ELISA on immobilised peptide. The method, then:
(§1) In order to identify more detailed epitopes for the antibodies, the amino acid sequence of GPC3 was divided into peptides of 30 residues containing 10-residue overlaps, and the corresponding peptides were synthesized (SEQ ID NOs: 1 to 29 in Table 2). Each peptide thus synthesized was dissolved at a concentration of 1 mg/mL in dimethyl sulfoxide and then diluted to 1 μg/mL with PBS. The diluted peptide solution was added at 70 μL/well to a 96-well plate and immobilized thereon at room temperature for 1 hour. After removal of unimmobilized peptides, 20% Blocking-one (Nacalai Tesque, Inc.) was added thereto as a blocking buffer solution at 200 μL/well, and the plate was blocked overnight. After removal of the blocking buffer solution, each well was washed with TBS-T three times, and each antibody diluted to 2 μg/mL with a blocking buffer was then added thereto at 70 μL/well. One hour later, the antibody was removed, and each well was washed three times by the addition of TBS-T at 200 μL/well. An HRP-bound anti-mouse antibody was added at 70 μL/well to each well and reacted therewith for 1 hour. After removal of the antibody, each well was washed with 200 μL/well of TBS-T three times, and a chromogenic reagent ABTS Peroxidase Substrate System (1 component, KPL, Kirkegaard & Perry Laboratories, Inc.) was then added thereto at 70 μL/well and reacted at room temperature for […] to develop color. The reaction was terminated by the addition of 1% SDS at 70 μL/well, and the absorbance at 405 nm was measured using a plate reader.
For orientation: In an ELISA, binding on a coated surface is turned into a signal by an enzyme label.

Test [2] deals with T2, GPC3 peptide, amino acid position 141-170 (SEQ ID NO: 8) (human).
T2 construct: synthetic 30-residue peptide of GPC3
T2 peptide: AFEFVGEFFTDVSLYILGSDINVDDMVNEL
Put plainly: ELISA on immobilised peptide. As for the experimental part:
as §1

Test [3] has as its target T3, GPC3 peptide, amino acid position 161-190 (SEQ ID NO: 9) (human).
T3 construct: synthetic 30-residue peptide of GPC3
T3 peptide: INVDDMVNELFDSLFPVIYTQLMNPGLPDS
Put plainly: ELISA on immobilised peptide. The method, then:
as §1

Test [4] addresses T4, GPC3 peptide, amino acid position 241-270 (SEQ ID NO: 13) (human).
T4 construct: synthetic 30-residue peptide of GPC3
T4 peptide: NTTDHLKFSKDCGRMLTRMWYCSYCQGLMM
Put plainly: ELISA on immobilised peptide. As for the experimental part: as §1

Test [5] has as its target T5, GPC3 peptide, amino acid position 321-350 (SEQ ID NO: 17) (human).
T5 construct: synthetic 30-residue peptide of GPC3
T5 peptide: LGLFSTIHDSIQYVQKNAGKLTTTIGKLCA
Kind of test: ELISA on immobilised peptide. As for the experimental part: as §1

Test [6] concerns the target T6, GPC3 peptide, amino acid position 401-430 (SEQ ID NO: 21) (human).
T6 construct: synthetic 30-residue peptide of GPC3
T6 peptide: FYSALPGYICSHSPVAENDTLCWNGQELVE
Put plainly: ELISA on immobilised peptide. The method, then:
as §1

Test [7] has as its target T7, AW2, C-terminally His-tagged recombinant product of positions 1 to 196 of GPC3 (human, UniProt P51654 25-196).
T7 construct: Expressed in CHO cells; cell pellets used in reducing Western blot; Construct is stated from position 1; also called AW2 (1-196); not shown: C-terminal His tag
Kind of test: Western blot of CHO cell pellets, reducing. In general terms: In western blotting, separated proteins are transferred to a membrane and probed.

Test [8] deals with T8, AW3, C-terminally His-tagged recombinant product of positions 1 to 218 of GPC3 (human, UniProt P51654 25-218).
T8 construct: Expressed in CHO cells; cell pellets used in reducing Western blot; Construct is stated from position 1; not shown: C-terminal His tag
T8 sequence (P51654 25-218): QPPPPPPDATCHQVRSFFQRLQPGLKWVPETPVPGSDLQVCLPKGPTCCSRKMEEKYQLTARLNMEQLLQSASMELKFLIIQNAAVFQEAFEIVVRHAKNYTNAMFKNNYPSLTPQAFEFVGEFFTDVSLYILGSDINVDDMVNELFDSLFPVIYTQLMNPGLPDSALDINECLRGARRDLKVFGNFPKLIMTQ
Kind of test: Western blot of CHO cell pellets, reducing.

Test [9] has as its target T9, AW5, C-terminally His-tagged recombinant product of positions 1 to 357 of GPC3 (human, UniProt P51654 25-357).
T9 construct: Expressed in CHO cells; cell pellets used in reducing Western blot; Construct is stated from position 1; also called AW5 (1-357); not shown: C-terminal His tag
Kind of test: Western blot of CHO cell pellets, reducing.

The record followed here is patent publication US20170010270A1 (Chugai, published 2017).

T7 sequence (P51654 25-196): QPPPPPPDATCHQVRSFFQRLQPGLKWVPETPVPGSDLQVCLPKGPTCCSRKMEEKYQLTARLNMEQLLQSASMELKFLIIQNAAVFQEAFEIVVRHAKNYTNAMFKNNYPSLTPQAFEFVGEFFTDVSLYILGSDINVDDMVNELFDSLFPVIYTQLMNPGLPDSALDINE
T9 sequence (P51654 25-357): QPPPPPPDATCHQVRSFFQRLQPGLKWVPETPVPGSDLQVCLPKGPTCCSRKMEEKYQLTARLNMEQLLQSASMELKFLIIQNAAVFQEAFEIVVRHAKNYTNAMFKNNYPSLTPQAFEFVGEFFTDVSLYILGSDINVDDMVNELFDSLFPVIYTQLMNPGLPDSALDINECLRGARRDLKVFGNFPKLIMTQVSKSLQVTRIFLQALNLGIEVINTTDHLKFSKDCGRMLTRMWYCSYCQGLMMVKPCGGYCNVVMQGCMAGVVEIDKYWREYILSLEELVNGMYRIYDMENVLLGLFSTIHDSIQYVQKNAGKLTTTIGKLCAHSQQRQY

B1: GT114 antibody (antibody, IgG1, V domains shown)
VH: DVQLQESGPGLVKPSQSLSLTCTVTGYSITSDSAWNWIRQFPGNKLEWMAYIMYSGITSYNPSLKSRISITRDTAKNQFFLQLNSVTTEDSATYYCSRGYWYFDVWGAGTTVTVSS
VL: QIVLTQSPAIMSASLGEEITLTCSASSSVSYMHWYQQKSGTSPKLLIYSTSILASGVPSRFSGSGSGTFYSLTISSVEAEDAADYYCLQWITYRTFGGGTKLEIKR
For B1, the binding result in [1], in test [2], in [3], in test [4], in [5] and in [6] was “no binding (tested: 2 µg/mL)” throughout. Besides, the binding result in test [7] and in test [8] was “no binding” each time.

B2: GT165 antibody (antibody, IgG1, V domains shown)
VH: QVQLQQSGAELVGPGASVKISCKAFGYTFTNHHINWVKQRPGQGLDWIGYINPYNDYTNYNQKFKGKATLTVDKSSSTAYMELSSLTSEDSAVYYCARSDPAWFAYWGQGTLVTVSA
VL: DIQMTQSPSSLSASLGGKVTITCKASQDINKNIAWYQHKPGKGPRLLIWYTYTLQPGIPSRFSGSGSGRDYSFSISNLEPEDIATYYCLQYDNLPFTFGTGTKLEIKR
B2: the binding result in test [1], in [2], in [3], in [4], in test [5] and in test [6] was “no binding (tested: 2 µg/mL)” each time. The binding result in test [7], in test [8] and in test [9] was “no binding” in each case.

B3: GT607 antibody (antibody, IgG1, V domains shown)
VH: EVQLVESGGDVVRPGGSLKLSCAASGFTFSSYGMSWVRQLPDKRLEWVASVGNGGSYRYYPENLKGRFTISRDNTKNTLYLQISGLKSEDTAIYYCARRGAFPYFDVWGAGTTVTVSS
VL: QIVLTQSPAIMSASPGEKVTLACSASSSVTYMHWYQQKSGTSPKRWIYETSKLASGVPPRFSGSGSGTSYSLTISTMEAEDAATYYCQQWSSNPLTFGAGTKLELKR
As for B3, the binding result in test [1], in test [2], in [3], in test [4], in test [5] and in test [6] was “no binding (tested: 2 µg/mL)” in each case. Moreover, the binding result in [7] and in test [8] was “no binding” each time.
